For data set [1], the target named is T1, Intracellularly biotinylated Avi-His6-tev-DPP9 (UniProt Q86TI2 1-863, biotin (on the Avi tag)).
T1 construct: dipeptidyl peptidase 9 (DPP9); also called biotin-DPP9; immobilized DPP9; source: Sf9 insect cells, intracellularly biotinylated, purified; not shown: Avi, N-terminal, kept; His6, N-terminal, kept
The data set can be described thus: SPR; biotinylated Avi-His6-tev-DPP9 immobilised on a Series S SA chip (Biacore 8K); monomeric fraction of FIIND proteins (or GST) injected, single-cycle kinetics, 78.125-5000 nM (S1213A from 39.06 nM), 10 mM Hepes pH 7.5, 150 mM NaCl, 0.5 mM TCEP, 0.05% Tween-20. The following applies: both partners purified. Background: Surface plasmon resonance follows binding to a sensor surface in real time, without labels.

Data set [2] deals with the molecule itself. The data set can be described thus: SEC; purified FIIND proteins after removal of GST by TEV, Superose 6 increase (10/300) GL, 0.5 ml/min; fractions checked by SDS-PAGE. On the technique in general: In gel filtration, larger molecules generally elute earlier.
Data set [3] addresses T1, Intracellularly biotinylated …. Briefly: SPR; as a3, with 100 μM Val-boroPro (VbP) present in all dilutions of the FIIND domain. The following applies: both partners purified.
Data set [4] concerns the target T2, C-terminal cleavage fragment (UPA) of NLRP1-FIIND (human, UniProt Q9C000 1213-1376).
T2 construct: NLRP1, human, isoform 1; from the autolytic cleavage site (S1213) to the end of the FIIND construct (1376); source: Sf9 insect cells, purified; arises by autoproteolysis of the FIIND construct
T2 sequence (looked up): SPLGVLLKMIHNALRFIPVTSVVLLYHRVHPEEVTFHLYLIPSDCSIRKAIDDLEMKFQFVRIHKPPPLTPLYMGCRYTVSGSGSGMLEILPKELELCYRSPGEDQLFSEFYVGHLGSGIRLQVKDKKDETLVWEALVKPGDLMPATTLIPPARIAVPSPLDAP
The data set can be described thus: SEC; purified FIIND proteins after removal of GST by TEV, Superose 6 increase (10/300) GL, 0.5 ml/min; fractions checked by SDS-PAGE. The following applies: both partners purified.

The results in this text go back to article PMC9700037, “Inflammasome sensor NLRP1 disease variant M1184V promotes autoproteolysis and DPP9 complex formation by stabilizing the FIIND domain” (The Journal of Biological Chemistry, 2022).

Broadly, the Kd is the constant that tells how readily two partners part at equilibrium. Read a low Kd as tighter binding.

T1 sequence (Q86TI2 whole entry): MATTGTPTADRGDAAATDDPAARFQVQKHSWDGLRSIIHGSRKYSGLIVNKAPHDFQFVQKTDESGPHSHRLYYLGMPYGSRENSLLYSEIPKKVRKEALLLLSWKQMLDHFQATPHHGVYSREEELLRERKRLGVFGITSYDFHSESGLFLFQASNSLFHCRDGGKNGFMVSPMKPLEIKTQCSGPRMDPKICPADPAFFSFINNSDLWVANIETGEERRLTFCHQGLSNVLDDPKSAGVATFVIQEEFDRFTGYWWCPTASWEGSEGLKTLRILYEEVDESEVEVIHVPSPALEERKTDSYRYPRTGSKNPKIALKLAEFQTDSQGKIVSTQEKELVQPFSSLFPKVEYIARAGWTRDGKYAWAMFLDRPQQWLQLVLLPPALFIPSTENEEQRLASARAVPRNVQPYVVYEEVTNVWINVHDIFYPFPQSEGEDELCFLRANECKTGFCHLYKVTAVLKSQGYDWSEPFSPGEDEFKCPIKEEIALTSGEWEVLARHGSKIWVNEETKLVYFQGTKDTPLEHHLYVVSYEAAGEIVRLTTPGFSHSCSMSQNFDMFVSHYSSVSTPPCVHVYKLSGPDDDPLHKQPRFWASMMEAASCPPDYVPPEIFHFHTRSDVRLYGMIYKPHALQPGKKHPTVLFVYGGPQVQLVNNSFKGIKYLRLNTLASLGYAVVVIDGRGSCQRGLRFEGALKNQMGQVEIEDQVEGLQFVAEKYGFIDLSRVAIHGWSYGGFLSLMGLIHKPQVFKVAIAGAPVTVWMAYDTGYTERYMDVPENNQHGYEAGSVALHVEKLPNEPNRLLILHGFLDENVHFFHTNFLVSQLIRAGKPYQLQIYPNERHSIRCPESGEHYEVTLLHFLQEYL

B1: NLRP1-FIIND (wt) (domain or fragment, human, UniProt Q9C000 1064-1376, looked up)
chain: SQGDLHTKPLGTDDDFWGPTGPVATEVVDKEKNLYRVHFPVAGSYRWPNTGLCFVMREAVTVEIEFCVWDQFLGEINPQHSWMVAGPLLDIKAEPGAVEAVHLPHFVALQGGHVDTSLFQMAHFKEEGMLLEKPARVELHHIVLENPSFSPLGVLLKMIHNALRFIPVTSVVLLYHRVHPEEVTFHLYLIPSDCSIRKAIDDLEMKFQFVRIHKPPPLTPLYMGCRYTVSGSGSGMLEILPKELELCYRSPGEDQLFSEFYVGHLGSGIRLQVKDKKDETLVWEALVKPGDLMPATTLIPPARIAVPSPLDAP
notes: NLRP1 FIIND domain (ZU5-UPA), human, residues 1064-1376 of isoform 1; GST is still on the protein during the GST pull-down of the co-expression experiments and is cut off by TEV before SEC, SEC-MALS and SPR; also called wt FIIND protein; NLRP1 FIIND domain; source: also co-expressed with His6-DPP9 and SUMO-UPA in Sf9; not shown: GST, N-terminal, cleaved
B1 gave a dissociation constant (Kd) in data set [1] of 1.9 µM. For the same molecule, the binding result in data set [2] is recorded as “binds”.

B2: NLRP1-FIIND (M1184V–P1214R) (domain or fragment, human, UniProt Q9C000 1064-1376, looked up)
chain: SQGDLHTKPLGTDDDFWGPTGPVATEVVDKEKNLYRVHFPVAGSYRWPNTGLCFVMREAVTVEIEFCVWDQFLGEINPQHSWMVAGPLLDIKAEPGAVEAVHLPHFVALQGGHVDTSLFQVAHFKEEGMLLEKPARVELHHIVLENPSFSRLGVLLKMIHNALRFIPVTSVVLLYHRVHPEEVTFHLYLIPSDCSIRKAIDDLEMKFQFVRIHKPPPLTPLYMGCRYTVSGSGSGMLEILPKELELCYRSPGEDQLFSEFYVGHLGSGIRLQVKDKKDETLVWEALVKPGDLMPATTLIPPARIAVPSPLDAP
notes: NLRP1 FIIND domain, human, residues 1064-1376 of isoform 1, M1184V and P1214R; they were combined here by mutagenesis; also called M1184V–P1214R double mutation; not shown: GST, N-terminal, cleaved
In the case of B2, binding in data set [1] was put at a Kd of 4.5 µM.

B3: NLRP1-FIIND (P1214R) (domain or fragment, human, UniProt Q9C000 1064-1376, looked up)
chain: SQGDLHTKPLGTDDDFWGPTGPVATEVVDKEKNLYRVHFPVAGSYRWPNTGLCFVMREAVTVEIEFCVWDQFLGEINPQHSWMVAGPLLDIKAEPGAVEAVHLPHFVALQGGHVDTSLFQMAHFKEEGMLLEKPARVELHHIVLENPSFSRLGVLLKMIHNALRFIPVTSVVLLYHRVHPEEVTFHLYLIPSDCSIRKAIDDLEMKFQFVRIHKPPPLTPLYMGCRYTVSGSGSGMLEILPKELELCYRSPGEDQLFSEFYVGHLGSGIRLQVKDKKDETLVWEALVKPGDLMPATTLIPPARIAVPSPLDAP
notes: NLRP1 FIIND domain, human, residues 1064-1376 of isoform 1, patient mutation P1214R; not shown: GST, N-terminal, cleaved
B3: the Kd in data set [1] is 3.43 µM.

B4: NLRP1-FIIND (S1213A) (domain or fragment, human, UniProt Q9C000 1064-1376, looked up)
chain: SQGDLHTKPLGTDDDFWGPTGPVATEVVDKEKNLYRVHFPVAGSYRWPNTGLCFVMREAVTVEIEFCVWDQFLGEINPQHSWMVAGPLLDIKAEPGAVEAVHLPHFVALQGGHVDTSLFQMAHFKEEGMLLEKPARVELHHIVLENPSFAPLGVLLKMIHNALRFIPVTSVVLLYHRVHPEEVTFHLYLIPSDCSIRKAIDDLEMKFQFVRIHKPPPLTPLYMGCRYTVSGSGSGMLEILPKELELCYRSPGEDQLFSEFYVGHLGSGIRLQVKDKKDETLVWEALVKPGDLMPATTLIPPARIAVPSPLDAP
notes: NLRP1 FIIND domain, human, residues 1064-1376 of isoform 1, S1213A (no autoproteolysis); Uncleaved single chain; also called autoproteolysis-deficient NLRP1-FIIND; not shown: GST, N-terminal, cleaved
In turn, B4 gave an equilibrium dissociation constant (Kd) in data set [1] of 1.55 µM. In data set [2], the binding result is “binds”.

B5: NLRP1-FIIND (M1184V S1213A) (domain or fragment, human, UniProt Q9C000 1064-1376, looked up)
chain: SQGDLHTKPLGTDDDFWGPTGPVATEVVDKEKNLYRVHFPVAGSYRWPNTGLCFVMREAVTVEIEFCVWDQFLGEINPQHSWMVAGPLLDIKAEPGAVEAVHLPHFVALQGGHVDTSLFQVAHFKEEGMLLEKPARVELHHIVLENPSFAPLGVLLKMIHNALRFIPVTSVVLLYHRVHPEEVTFHLYLIPSDCSIRKAIDDLEMKFQFVRIHKPPPLTPLYMGCRYTVSGSGSGMLEILPKELELCYRSPGEDQLFSEFYVGHLGSGIRLQVKDKKDETLVWEALVKPGDLMPATTLIPPARIAVPSPLDAP
notes: NLRP1 FIIND domain, human, residues 1064-1376 of isoform 1, M1184V and S1213A; Uncleaved single chain; GST kept during the GST pull-down of the co-expression, cut off by TEV afterwards; also called cleavage-deficient FIIND mutant (M1184V–S1213A); source: also co-expressed with His6-DPP9 in Sf9; not shown: GST, N-terminal, cleaved
As for B5, the affinity in data set [1], expressed as Kd, was 2.9 µM.

B6: NLRP1-FIIND (M1184V) (domain or fragment, human, UniProt Q9C000 1064-1376, looked up)
chain: SQGDLHTKPLGTDDDFWGPTGPVATEVVDKEKNLYRVHFPVAGSYRWPNTGLCFVMREAVTVEIEFCVWDQFLGEINPQHSWMVAGPLLDIKAEPGAVEAVHLPHFVALQGGHVDTSLFQVAHFKEEGMLLEKPARVELHHIVLENPSFSPLGVLLKMIHNALRFIPVTSVVLLYHRVHPEEVTFHLYLIPSDCSIRKAIDDLEMKFQFVRIHKPPPLTPLYMGCRYTVSGSGSGMLEILPKELELCYRSPGEDQLFSEFYVGHLGSGIRLQVKDKKDETLVWEALVKPGDLMPATTLIPPARIAVPSPLDAP
notes: NLRP1 FIIND domain (ZU5-UPA), human, residues 1064-1376 of isoform 1, natural variant M1184V; Mostly autocleaved between F1212 and S1213, the fragments stay together; GST is still on the protein during the GST pull-down of the co-expression experiments and is cut off by TEV before SEC, SEC-MALS and SPR; also called M1184V variant FIIND; source: also co-expressed with His6-DPP9 with or without …
Regarding B6, the Kd in data set [1] was found to be 3.5 µM; in data set [3] it was 3.65 µM.

B7: N-terminal cleavage fragment (ZU5) of NLRP1-FIIND wt (domain or fragment, human, UniProt Q9C000 1064-1212, looked up)
chain: SQGDLHTKPLGTDDDFWGPTGPVATEVVDKEKNLYRVHFPVAGSYRWPNTGLCFVMREAVTVEIEFCVWDQFLGEINPQHSWMVAGPLLDIKAEPGAVEAVHLPHFVALQGGHVDTSLFQMAHFKEEGMLLEKPARVELHHIVLENPSF
notes: NLRP1, human, isoform 1; from the start of the FIIND construct (1064) to the autolytic cleavage site (peptide bond F1212-S1213); source: Sf9 insect cells, purified; arises by autoproteolysis of the FIIND construct; not shown: GST, N-terminal, cleaved
Regarding B7, the binding result in data set [4] is recorded as “binds”.

B8: N-terminal cleavage fragment (ZU5) of NLRP1-FIIND M1184V (domain or fragment, human, UniProt Q9C000 1064-1212, looked up)
chain: SQGDLHTKPLGTDDDFWGPTGPVATEVVDKEKNLYRVHFPVAGSYRWPNTGLCFVMREAVTVEIEFCVWDQFLGEINPQHSWMVAGPLLDIKAEPGAVEAVHLPHFVALQGGHVDTSLFQVAHFKEEGMLLEKPARVELHHIVLENPSF
notes: NLRP1, human, isoform 1, natural variant M1184V; from the start of the FIIND construct (1064) to the autolytic cleavage site (peptide bond F1212-S1213); source: Sf9 insect cells, purified; arises by autoproteolysis of the FIIND construct; not shown: GST, N-terminal, cleaved
As for B8, the binding result in data set [4] was “binds”.
